Positions count from the first letter of the chain named.
B1: AS12824 (antibody, V domains shown)
VH: QVQLVQSGAEVKKPGASVKVSCKASGFDICDTYMHWVKQRPGQGLEWIGRIDPASGHTKYDPKFQVRATITTDTSTSTAYLELSSLRSEDTAVYYCARSGGLPDVWGQGTTVTVSS
VL: EIVLTQSPGTLSASPGERATMSCRASSSVSYMYWYQQKPGQAPRPWIYATSNLASGVPDRFSGSGSGTDYTLTISRVEPEDFAVYYCQQWSGNPRTFGGGTKLEIK
notes: Humanized 5C3D11 clone from a phage display library; also called 15
B2: AS12819 (antibody, V domains shown)
VH: B1 VH with K12V, V20L, K38R, I48M, A68V, I70M, A79V
VL: B1 VL with A13L, A19V, Y70F, L103V
notes: Humanized 5C3D11 clone from a phage display library; also called 10
B3: AS12825 (antibody, V domains shown)
VH: B1 VH with R40A, I48M, I70M, A97S
VL: B1 VL with A19V, P45L, W46L, Y70F
notes: Humanized 5C3D11 clone from a phage display library; also called 16
B4: AS12816 (antibody, V domains shown)
VH: B1 VH with T72R, A97S
VL: B1 VL with A19V, M21L, Y70F, V77L
notes: Humanized 5C3D11 clone from a phage display library
B5: AS12823 (antibody, V domains shown)
VH: B1 VH with V20L, K38R, I70M, A79V
VL: B1 VL with A13L, V57I, Y70F
notes: Humanized 5C3D11 clone from a phage display library; also called 14
B6: 9E12E5 (antibody, V domains shown)
VH: QVHLQQSGPELVKPGASVKLSCKASGYTFTKYDINWVRQRPEQGLEWIGWIFPGDGRTDYNEKFKGKATLTTDKSSSTAYMEVSRLTSEDSAVYFCARYGPAMDYWGQGTSVTVAS
VL: DVLMTQTPLSLPVSLGDQASISCRSSQTIVHSNGDTYLDWFLQKPGQSPKLLIYKVSNRFSGVPDRFSGSGSGTDFTLKISRVEAEDLGVYYCFQGSHVPYTFGGGTKLEIK
notes: Mouse hybridoma monoclonal antibody; also called 684842-6; anti-TL1A antibody 9E12E5
B7: 5C3D11 (antibody, V domains shown)
VH: EVQLQQSGAELVKPGASVKLSCTASGFDIQDTYMHWVKQRPEQGLEWIGRIDPASGHTKYDPKFQVKATITTDTSSNTAYLQLSSLTSEDTAVYYCSRSGGLPDVWGAGTTVTVSS
VL: QIVLSQSPAILSASPGEKVTMTCRASSSVSYMYWYQQKPGSSPKPWIYATSNLASGVPDRFSGSGSGTSYSLTISRVEAEDAATYYCQQWSGNPRTFGGGTKLEIK
notes: Mouse hybridoma monoclonal antibody; also called 684842-3; anti-TL1A antibody 5C3D11

molecular target: T1, human TL1A (hTL1A) antigen (human, UniProt O95150 58-251, limits assumed); assay: SPR, affinity ranking, clone as ligand
T1 construct: also called TNFSF15
T1 sequence (looked up): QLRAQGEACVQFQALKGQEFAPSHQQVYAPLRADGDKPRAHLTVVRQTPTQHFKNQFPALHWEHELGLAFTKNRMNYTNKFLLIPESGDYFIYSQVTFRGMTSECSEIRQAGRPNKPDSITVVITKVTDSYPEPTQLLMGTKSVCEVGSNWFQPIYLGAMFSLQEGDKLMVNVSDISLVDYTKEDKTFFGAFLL

Row | Binder | Kd [nM] | koff [s⁻¹] | kon [M⁻¹ s⁻¹]
1 | B1 | 0.0163 | 1.69e-05 | 1.03e+06
2 | B2 | 0.0462 | 3.81e-05 | 825000
3 | B3 | 0.105 | 5.45e-05 | 518000
4 | B4 | 0.062 | 4.73e-05 | 763000
5 | B5 | 0.0424 | 3.66e-05 | 864000

molecular target: T1, human TL1A (hTL1A) antigen; assay: cell-based or functional assay

Row | Binder | EC50, inhibition of human TL1A induced IFN-γ production (percent of IFN-γ production without inhibitor) [nM]
6 | B6 | 2.4

molecular target: T1, human TL1A (hTL1A) antigen; assay: Biacore (SPR), TL1A as analyte

Row | Binder | Kd [nM]
7 | B7 | 0.079
8 | B6 | 0.52

molecular target: T1, human TL1A (hTL1A) antigen; assay: cell-based or functional assay; remark: another data set of the same source

Row | Binder | EC50, inhibition of human TL1A induced IFN-γ production (percent of IFN-γ production without inhibitor) [nM]
9 | B7 | 1

molecular target: T2, murine TL1A (murine, UniProt Q5UBV8 94-252, limits assumed); assay: MSD electrochemiluminescence plate assay, antibody titrated on plates coated with murine TL1A
T2 sequence (looked up): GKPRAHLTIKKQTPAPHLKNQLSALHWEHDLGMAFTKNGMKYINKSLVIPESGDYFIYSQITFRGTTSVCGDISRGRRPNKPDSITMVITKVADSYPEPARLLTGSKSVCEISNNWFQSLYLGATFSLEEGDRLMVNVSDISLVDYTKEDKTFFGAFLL
Procedure: Anti-human TL1A monoclonal antibodies 9E12E5 and 5C3D11 neutralize the activity of human TL1A in vitro. […] MSD plates were coated with murine TL1A and incubated with various concentrations of 5C3D11 or 9E12E5 to evaluate the ability of the antibody to recognize murine TL1A, as shown in FIG. 6. Human TL1A was included as a positive control. 5C3D11 recognizes murine TL1A in a concentration dependent manner. The binding profile of both the 5C3D11 and 9E12E5 antibodies were assessed using a TL1A transfected HEK293 cell line and compared to the untransfected parental HEK293 cell line. Fluorescent staining of the anti-TL1A antibodies in TL1A expressing HEK293 cells is compared to the untransfected parental HEK293 cells, as shown in FIG. 7.

Row | Binder | binding result
10 | B6 | no binding (tested: 100 ng/ml)

molecular target: T1, human TL1A (hTL1A) antigen; assay: SPR, multi-cycle, antibody as ligand, TL1A analyte

Row | Binder | kon [M⁻¹ s⁻¹]
11 | B1 | 1.07e+06
12 | B2 | 946000
13 | B4 | 819000
14 | B5 | 1.11e+06

Source: US20260102485A1 (CEDARS SINAI MEDICAL CENTER, published 2026)
